Measured values from publication PMC5499591 (Nucleic Acids Research, 2017).
Residue numbers refer to the chain shown, from its start.

Key:
[1] = target: T1, GST-Mcm10-4A (Saccharomyces cerevisiae, UniProt P32354 1-571, I26A;L30A;R37A;L40A); test: GST pull-down
T1 sequence: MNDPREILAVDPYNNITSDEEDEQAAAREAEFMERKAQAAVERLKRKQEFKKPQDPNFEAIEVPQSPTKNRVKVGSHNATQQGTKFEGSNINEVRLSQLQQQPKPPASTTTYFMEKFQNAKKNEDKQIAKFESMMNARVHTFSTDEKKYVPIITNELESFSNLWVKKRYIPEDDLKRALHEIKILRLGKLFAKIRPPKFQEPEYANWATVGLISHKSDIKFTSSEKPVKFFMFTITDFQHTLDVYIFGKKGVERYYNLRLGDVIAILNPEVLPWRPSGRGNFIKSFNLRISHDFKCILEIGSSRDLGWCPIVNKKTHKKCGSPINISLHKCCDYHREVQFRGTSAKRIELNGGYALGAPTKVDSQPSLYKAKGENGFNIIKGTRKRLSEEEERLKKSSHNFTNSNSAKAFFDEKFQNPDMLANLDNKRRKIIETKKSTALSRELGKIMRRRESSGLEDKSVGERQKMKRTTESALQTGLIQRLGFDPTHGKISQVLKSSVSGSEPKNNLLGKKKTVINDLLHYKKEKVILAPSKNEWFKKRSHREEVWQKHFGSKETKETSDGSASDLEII

[2] = target: T2, GST-Mcm10 (wild type) (Saccharomyces cerevisiae, UniProt P32354 1-571); test: GST pull-down
T2 sequence: T1 sequence with A26I, A30L, A37R, A40L

Does ATGTCCTAGCAAGCCAGAATTCGGC (ssDNA) [25mer ssDNA] bind [1]?
Result: binds

Does ATGTCCTAGCAAGCCAGAATTCGGC (ssDNA) [25mer ssDNA] bind [2]?
Result: binds
